# Test results reported in article PMC10444775 (Scientific Reports, 2023).
# B1: 7A9 VHH (VHH)
# VHH: QVQLVESGGGLVQAGGSLRLSCSASGGTASRSAMGWFRQAPGKEREFVAGISRRNSGSTYVADSYEDSVKGRFTISRDNAKNTIYLQMNSLKPEDTAVYYCAAEPTLGWYVPRRSVEYEYWGQGTQVTVSS
# notes: also called VHH 7A9; 7A9 VHH monomer; source: ExpiCHO, transiently transfected, purified
# Target: SARS-CoV-2 PreS Spike ECD protein, biotinylated via a C-terminal Avi tag (SARS-CoV-2, Wuhan wild type, K986P | V987P | 682-685 RRAR to GSAS, biotin on the Avi tag)
# Assay: SPR
# Settings: both partners purified
binder,measurement,value
B1,Kd,0.22 nM
